B1: ZNF8 (parent)
chain: VHVIGVEEPSVGASMLFDIREST

Variants of: B1
Test: protein stability index of a GFP-peptide fusion (GPS, HEK-293T) (PSI 1-6); higher = more stable
Details: c terminus: native
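Also: lentivirally expressed fusions sorted by FACS into six bins by GFP to DsRed ratio, PSI derived from sequencing read proportions per bin multiplied by bin number.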

Protein stability index: each site, then its substitutions
H2: Y 2.51 | T 1.79 | I 2.56 | N 2.95 | M 1.43 | Q 2.27 | D 3.42
V3: L 1.88 | H 3.02 | G 3.42 | K 3.36 | S 3.42 | T 3.08
G12: E 2.45 | S 2.19 | W 2.88 | N 2.29 | I 1.78 | H 2.1 | P 2.16
S22: Y 1.59 | Q 2.2 | F 2.23 | G 1.79 | P 2.42 | R 1.92 | E 2.58 | V 1.55 | L 1.68
E21: V 1.78 | S 1.76 | Y 2.4 | F 2.77 | D 2.38 | W 3.39 | G 2.42
L16: T 2.44 | A 2.52 | K 2.64 | D 3.53 | M 1.94 | N 3.6 | G 2.95 | I 2.06 | R 2.98
S10: Y 2.02 | I 2.91 | D 2.48 | G 2.1 | R 1.71 | M 1.52 | N 2.23 | K 1.99
I4: P 3.88 | R 2.9 | G 3.34 | N 3.43 | H 2.62 | K 3.18
E7: F 3.54 | P 2.2 | W 3.4 | L 1.92 | R 1.33 | I 1.7 | G 1.94 | C 1.81 | K 1.72
A13: L 2.41 | G 2.74 | K 2.2 | D 2.69 | E 2.61 | I 2.78 | P 2.51 | N 2.31
V6: F 2.27 | C 1.96 | Y 1.9 | S 2.75 | H 2.46 | G 2.54
P9: K 2.31 | D 2.53 | A 2.65 | F 2.45 | H 1.74
E8: F 2.49 | T 1.73 | S 2.09 | V 2.45 | R 1.89 | C 3.48 | H 2.08 | P 1.75 | Y 2.87
G5: M 2.84 | I 2.51 | S 1.56 | C 2.82 | K 1.95 | W 2.37 | Y 2.35 | H 1.6 | D 3.11
M15: P 2.78 | N 2.75 | Y 2.2 | F 1.62
F17: G 3.66 | N 3.33 | H 3.17 | L 2.03 | K 3.4
S14: T 2.26 | W 3.13 | N 2.4 | F 2.28 | H 1.95 | P 2.63 | C 1.54 | G 1.92 | A 1.86
R20: E 3.26 | G 2.37 | H 2.68 | K 2.4 | N 3.1 | I 1.86
V1: Y 2.29 | P 3.77 | F 1.82 | I 2 | D 3.96 | S 3.97 | E 4.18 | C 1.93 | Q 3.88
I19: A 3.07 | D 3.65 | K 3.14 | T 2.91 | G 2.72 | P 3.1
D18: H 1.39 | K 1.42 | Y 2.55 | Q 1.98 | C 2.4 | T 1.69 | R 1.59
V11: D 2.69 | S 2.33 | N 2.35 | E 2.87 | I 1.91 | R 1.9 | K 2.27 | F 2.17
T23: S 2.48 | H 2.45 | G 2.12 | D 2.37 | Y 1.76 | A 2.01 | F 1.61 | N 2.14

— the supplement of paper PMC10567573
